This note sets out measurements from US20200199241A1 (Chugai, published 2020).

Test [1] addresses T1, mouse FcγRI (mouse, UniProt P26151 25-297).
T1 construct: bought; also called mFcgRI; mFcgR 1
T1 sequence (looked up): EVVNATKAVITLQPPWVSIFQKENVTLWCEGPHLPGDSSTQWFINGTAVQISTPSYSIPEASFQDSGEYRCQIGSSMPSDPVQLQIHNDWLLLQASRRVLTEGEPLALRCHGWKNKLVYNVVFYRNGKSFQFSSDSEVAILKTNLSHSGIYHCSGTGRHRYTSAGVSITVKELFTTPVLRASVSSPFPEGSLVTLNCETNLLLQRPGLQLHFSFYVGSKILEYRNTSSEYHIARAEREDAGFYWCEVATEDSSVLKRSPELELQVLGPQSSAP
As to the kind of experiment: SPR (Biacore T100/T200): FcγR injected over the antibody held by mouse FcRn immobilised on a CM4 chip, pH 7.4, 25 C. (In general: SPR reads the build-up and loss of mass on a sensor chip optically.)

For test [2], the target named is T2, mouse FcγRIV (mouse, UniProt A0A0B4J1G0 21-203).
T2 construct: bought; also called mFcgRIV; mFcgR IV; the vendor's purification tag not given
T2 sequence: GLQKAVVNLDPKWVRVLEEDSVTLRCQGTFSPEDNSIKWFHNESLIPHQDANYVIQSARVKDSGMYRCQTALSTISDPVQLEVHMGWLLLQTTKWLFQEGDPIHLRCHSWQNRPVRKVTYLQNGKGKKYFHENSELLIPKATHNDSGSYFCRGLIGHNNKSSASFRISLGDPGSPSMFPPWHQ
The description is as above.

Test [3] addresses T3, mouse FcγRIII (mouse, UniProt P08508 31-215).
T3 construct: bought; also called mFcgRIII; mFcgR III
T3 sequence (looked up): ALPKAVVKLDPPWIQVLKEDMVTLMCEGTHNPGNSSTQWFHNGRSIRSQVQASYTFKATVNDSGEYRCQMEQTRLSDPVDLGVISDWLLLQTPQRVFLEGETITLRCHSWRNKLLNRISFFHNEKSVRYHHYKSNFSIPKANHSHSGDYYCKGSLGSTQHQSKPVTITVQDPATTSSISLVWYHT
As to the kind of experiment: SPR (Biacore T100/T200): FcγR injected over the antibody held by mouse FcRn immobilised on a CM4 chip (simultaneous binding), pH 7.4, 25 C.

In test [4] the target is T4, mouse FcγRIIb (mouse, UniProt P08101 30-207, limits assumed).
T4 construct: bought; also called mFcgRIIb; mFcgR IIb
T4 sequence (looked up): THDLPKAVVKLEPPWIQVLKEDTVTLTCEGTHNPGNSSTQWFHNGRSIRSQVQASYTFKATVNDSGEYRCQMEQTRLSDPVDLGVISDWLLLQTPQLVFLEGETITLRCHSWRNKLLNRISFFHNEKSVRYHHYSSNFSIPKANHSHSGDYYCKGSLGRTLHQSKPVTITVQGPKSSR
Described as above.

Test [5] concerns the target T4, mouse FcγRIIb. As to the kind of experiment: SPR (Biacore T100/T200): FcγR injected over the antibody held by human FcRn immobilised on a CM4 chip (simultaneous binding), pH 7.4, 25 C.
Test [6] deals with T5, human FcγRIa (human, UniProt P12314 16-292, limits assumed).
T5 construct: also called hFcgRIa; hFcgRI
T5 sequence (P12314 16-292 limits assumed): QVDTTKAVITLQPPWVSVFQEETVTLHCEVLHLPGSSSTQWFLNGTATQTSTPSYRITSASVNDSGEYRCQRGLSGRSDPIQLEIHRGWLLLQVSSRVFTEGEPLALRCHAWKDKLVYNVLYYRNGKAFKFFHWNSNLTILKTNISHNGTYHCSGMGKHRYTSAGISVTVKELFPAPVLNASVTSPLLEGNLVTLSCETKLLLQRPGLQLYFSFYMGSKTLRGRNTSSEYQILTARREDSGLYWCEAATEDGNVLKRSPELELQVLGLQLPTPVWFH
The test is described as above.

In test [7] the target is T2, mouse FcγRIV. The description is as above.
Test [8] addresses T1, mouse FcγRI. The description is as above.
Test [9] concerns the target T3, mouse FcγRIII. The test is described as above.
Test [10] addresses T6, human FcγRIIb (human, UniProt P31994 43-217, limits assumed).
T6 construct: also called hFcgRIIb; FcγIIB
T6 sequence: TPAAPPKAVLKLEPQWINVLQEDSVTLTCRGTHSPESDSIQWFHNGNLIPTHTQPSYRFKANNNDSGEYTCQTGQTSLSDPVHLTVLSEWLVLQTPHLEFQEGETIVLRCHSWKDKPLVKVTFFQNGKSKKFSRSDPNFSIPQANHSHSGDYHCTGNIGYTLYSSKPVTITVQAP
Described as above.

Test [11] addresses T6, human FcγRIIb. Kind of test: SPR, antibody captured by Protein L, human FcγR as analyte, pH 7.4, 25 C.
Another test deals with T7, human FcγRIIa(H) (human, UniProt P12318 36-217).
T7 construct: also called hFcgRIIa(H); FcγRIIa type H
T7 sequence: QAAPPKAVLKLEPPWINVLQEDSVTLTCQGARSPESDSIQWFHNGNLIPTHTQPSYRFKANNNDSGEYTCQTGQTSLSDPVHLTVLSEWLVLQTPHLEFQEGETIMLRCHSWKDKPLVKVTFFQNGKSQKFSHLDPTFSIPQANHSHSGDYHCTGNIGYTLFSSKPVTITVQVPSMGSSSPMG
The test is described as above.

The next test has as its target T8, human FcγRIIa(R) (human, UniProt P12318 36-217).
T8 construct: also called hFcgRIIa(R); FcγRIIa type R
T8 chain: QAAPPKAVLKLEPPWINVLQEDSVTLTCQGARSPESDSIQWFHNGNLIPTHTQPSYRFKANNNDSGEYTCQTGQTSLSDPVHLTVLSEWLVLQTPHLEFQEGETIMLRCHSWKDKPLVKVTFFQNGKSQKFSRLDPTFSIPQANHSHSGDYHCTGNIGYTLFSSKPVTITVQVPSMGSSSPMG
Described as above.

Test [12] has as its target T5, human FcγRIa. The description is as above.
The target in test [13] is T9, human FcRn (soluble human FcRn complexed with β2-microglobulin) (human, UniProt P61769 21-119, limits assumed).
T9 construct: also called hFcRn
T9 sequence (chain, as listed by the source limits assumed, chain 1 of 2): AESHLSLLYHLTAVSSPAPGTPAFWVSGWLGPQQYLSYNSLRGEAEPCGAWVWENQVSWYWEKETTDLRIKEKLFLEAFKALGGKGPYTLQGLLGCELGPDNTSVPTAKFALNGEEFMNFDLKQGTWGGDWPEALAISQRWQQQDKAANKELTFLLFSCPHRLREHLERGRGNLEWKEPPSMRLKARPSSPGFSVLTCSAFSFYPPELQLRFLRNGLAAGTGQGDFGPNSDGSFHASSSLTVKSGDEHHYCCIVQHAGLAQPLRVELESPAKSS
T9 sequence (P61769 21-119 limits assumed, chain 2 of 2): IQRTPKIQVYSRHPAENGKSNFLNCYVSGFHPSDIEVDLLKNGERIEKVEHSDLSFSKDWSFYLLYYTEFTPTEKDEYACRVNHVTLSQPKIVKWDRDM
As to the kind of experiment: SPR, antibody captured by Protein L, human FcRn as analyte, pH 7.0, 25 C.

Test [14] addresses T9, human FcRn (soluble human FcRn …). The description is as above. The source holds these as a separate data set.
The target of test [15] is T3, mouse FcγRIII. As to the kind of experiment: SPR, antibody captured by Protein L, mouse FcγR as analyte, pH 7.4, 25 C.
Test [16] deals with T1, mouse FcγRI. Described as above.
The target of test [17] is T4, mouse FcγRIIb. Described as above.
Test [18] concerns the target T2, mouse FcγRIV. Described as above.

Like-named read-outs stand apart in the source and are kept apart here.

B1: mPM1-mIgG1-mF3 (mPM1H-mIgG1-mF3 and mPM1L-mk1) (antibody)
heavy: DVQLQESGPVLVKPSQSLSLTCTVTGYSITSDHAWSWIRQFPGNKLEWMGYISYSGITTYNPSLKSRISITRDTSKNQFFLQLNSVTTGDTSTYYCARSLARTTAMDYWGQGTSVTVSSAKTTPPSVYPLAPGSAAQTNSMVTLGCLVKGYFPEPVTVTWNSGSLSSGVHTFPAVLQSDLYTLSSSVTVPSSTWPSETVTCNVAHPASSTKVDKKIVPRDCGCKPCICTVPEVSSVFIFPPKPKDVLYITLEPKVTCVVVDISKDDPEVQFSWFVDDVEVHTAQTQPREEQFNSTFRSVSELPIMHQDWLNGKEFKCRVNSAAFPAPIEKTISKTKGRPKAPQVYTIPPPKEQMAKDKVSLTCMITDFFPEDITVEWQWNGQPAENYKNTQPIMDTDGSYFVYSKLNVQKSNWEAGNTFTCSVLHEGLKFHHTEKSLSHSPGK
light: DIQMTQTTSSLSASLGDRVTISCRASQDISSYLNWYQQKPDGTIKLLIYYTSRLHSGVPSRFSGSGSGTDYSLTINNLEQEDIATYFCQQGNTLPYTFGGGTKLEIKRADAAPTVSIFPPSSEQLTSGGASVVCFLNNFYPKDINVKWKIDGSERQNGVLNSWTDQDSKDSTYSMSSTLTLTKDEYERHNSYTCEATHKTSTSPIVKSFNRNEC
notes: copies: 2 + 2
For B1, the binding result is listed as “no binding” in the test with mouse FcγRI [1], “no binding” with mouse FcγRIV [2], “binds” with mouse FcγRIII [3] and “binds” with mouse FcγRIIb [4].

B2: Fv4-IgG1-F157 (VH3-IgG1-F157 and VL3-CK) (antibody)
heavy: QVQLQESGPGLVKPSETLSLTCAVSGHSISHDHAWSWVRQPPGEGLEWIGFISYSGITNYNPSLQGRVTISRDNSKNTLYLQMNSLRAEDTAVYYCARSLARTTAMDYWGEGTLVTVSSASTKGPSVFPLAPSSKSTSGGTAALGCLVKDYFPEPVTVSWNSGALTSGVHTFPAVLQSSGLYSLSSVVTVPSSSLGTQTYICNVNHKPSNTKVDKKVEPKSCDKTHTCPPCPAPELLGGPSVFLFPPKPKDTLMISRTAEVTCVVVDVSHEDPEVKFNWYVDGVEVHNAKTKPREEQYNSTYRVVSVLTPLHQDWLNGKEYKCKVSNKALPAPIEKTISKAKGQPREPQVYTLPPSRDELTKNQVSLTCLVKGFYPSDIAVEWESNGQPENNYKTTPPVLDSDGSFFLYSKLTVDKSRWQQGNVFSCSVLHEALHYHYTQKSLSLSP
light: DIQMTQSPSSLSASVGDSVTITCQASTDISSHLNWYQQKPGKAPELLIYYGSHLLSGVPSRFSGSGSGTDFTFTISSLEAEDAATYYCGQGNRLPYTFGQGTKVEIERTVAAPSVFIFPPSDEQLKSGTASVVCLLNNFYPREAKVQWKVDNALQSGNSQESVTEQDSKDSTYSLSSTLTLSKADYEKHKVYACEVTHQGLSSPVTKSFNRGEC
notes: copies: 2 + 2
On to B2, for which the binding result in the test with mouse FcγRIIb [5], in the test with human FcγRIa [6], with mouse FcγRIV [7], with mouse FcγRI [8], in the test with mouse FcγRIII [9] and with human FcγRIIb [10] was “binds” throughout.

B3: VH3/L(WT)-IgG1-F21 (VH3-IgG1-F21 heavy chain, L(WT)-CK light chain) (antibody)
heavy: QVQLQESGPGLVKPSETLSLTCAVSGHSISHDHAWSWVRQPPGEGLEWIGFISYSGITNYNPSLQGRVTISRDNSKNTLYLQMNSLRAEDTAVYYCARSLARTTAMDYWGEGTLVTVSSASTKGPSVFPLAPSSKSTSGGTAALGCLVKDYFPEPVTVSWNSGALTSGVHTFPAVLQSSGLYSLSSVVTVPSSSLGTQTYICNVNHKPSNTKVDKKVEPKSCDKTHTCPPCPAPELLGGPSVFLFPPKPKDTLYISRTPEVTCVVVDVSHEDPEVKFNWYVDGVEVHNAKTKPREEQYNSTYRVVSVLTPLHQDWLNGKEYKCKVSNKALPAPIEKTISKAKGQPREPQVYTLPPSRDELTKNQVSLTCLVKGFYPSDIAVEWESNGQPENNYKTTPPVLDSDGSFFLYSKLTVDKSRWQQGNVFSCSVMHEALHYHYTQKSLSLSP
light: not shown
notes: M252Y/V308P/N434Y; copies: 2 + 2
Take B3: the “BINDING AMOUNT (RU)” value with human FcγRIIb [11] came out at 63.4 RU; with human FcγRIIa(H), 154 RU; with human FcγRIIa(R), 145 RU; with human FcγRIa [12], 403 RU; with mouse FcγRIII [15], 371 RU; with mouse FcγRI [16], 315 RU. Besides, the “BINDING AMOUNT (RU)” value was 112 RU with mouse FcγRIIb [17] and 242 RU with mouse FcγRIV [18]. Moreover, the Kd in test [13] and in test [14] was 30 nM in each case.

The Kd is the free concentration of one partner at which half of the binding sites on the other are occupied at equilibrium, for simple one-to-one binding. Low values mean a tighter complex, high ones a looser complex.
